Test results reported in US11702475B2, “Cysteine engineered fibronectin type III domain binding molecules” (Janssen Biotech, Inc., priority 2013, dated 2023).
Where a chain is given by its changes, count along the chain named. Names and notes keep the numbering of the source.

B1: ECB15: bispecific SEQ ID 57: P54AR4-83V2, (AP)5, P114AR7P94-A3 (protein)
chain: MLPAPKNLVVSEVTEDSARLSWDDPWAFYESFLIQYQESEKVGEAIVLTVPGSERSYDLTGLKPGTEYTVSIYGVHNVYKDTNMRGLPLSAIFTTAPAPAPAPAPLPAPKNLVVSRVTEDSARLSWTAPDAAFDSFWIRYFEFLGSGEAIVLTVPGSERSYDLTGLKPGTEYVVNIMGVKGGKISPPLSAIFTT
modifications: bispecific EGFR/cMet binding molecule
B2: ECB97: bispecific SEQ ID 64: P54AR4-83V22, (AP)5, P114AR7P95-C5V2 (protein)
chain: B1 chain with M84I, M177L, G178S, K183S
modifications: bispecific EGFR/cMet binding molecule
B3: ECB94: bispecific SEQ ID 61: P54AR4-83V22, (AP)5, P114AR7P94-A3v22 (protein)
chain: B1 chain with M84I, M177L
modifications: bispecific EGFR/cMet binding molecule
B4: ECB95: bispecific SEQ ID 62: P54AR4-83V22, (AP)5, P114AR9P121-A6v2 (protein)
chain: B1 chain with M84I, L144V, M177L, K183S
modifications: bispecific EGFR/cMet binding molecule
B5: ECB96: bispecific SEQ ID 63: P54AR4-83V22, (AP)5, P114AR9P122-A7v2 (protein)
chain: B1 chain with M84I, L144V, G145S, S146K, E148D, M177L, K183S
modifications: bispecific EGFR/cMet binding molecule
B6: A90C: cysteine variant of P54AR4-83v2 (SEQ ID NOS: 214 and 252); NEM and VC-MMAF conjugates (conjugate)
chain: MLPAPKNLVVSEVTEDSARLSWDDPWAFYESFLIQYQESEKVGEAIVLTVPGSERSYDLTGLKPGTEYTVSIYGVHNVYKDTNMRGLPLSCIFTT
modifications: NEM or vcMMAF conjugate; EGFR binding FN3 domain
notes: NEM and VC-MMAF conjugates
B7: I91C: cysteine variant of P54AR4-83v2 (SEQ ID NOS: 215 and 253); NEM and VC-MMAF conjugates (conjugate)
chain: B6 chain with C91A, I92C
modifications: NEM or vcMMAF conjugate; EGFR binding FN3 domain
notes: NEM and VC-MMAF conjugates
B8: P54CR4-31: EGFR-binding FN3 domain, SEQ ID NO: 26 (protein)
chain: LPAPKNLVVSEVTEDSLRLSWTAPDAAFDSFLIQYQESEKVGEAINLTVPGSERSYDLTGLKPGTEYTVSIYGVLGSYVFEHDVMLPLSAEFTT
modifications: EGFR binding FN3 domain
B9: P54CR4-31v2: P54CR4-31 with mutations L17A, N46V, E86I; SEQ ID NO: 28 (protein)
chain: B8 chain with L17A, N46V, E91I
modifications: EGFR binding FN3 domain
B10: P54AR4-83: EGFR-binding FN3 domain, SEQ ID NO: 25 (protein)
chain: LPAPKNLVVSEVTEDSLRLSWDDPWAFYESFLIQYQESEKVGEAINLTVPGSERSYDLTGLKPGTEYTVSIYGVHNVYKDTNMRGLPLSAEFTT
modifications: EGFR binding FN3 domain
B11: P54AR4-37v2: P54AR4-37 with mutations L17A, N46V, E86I; SEQ ID NO: 29 (protein)
chain: B10 chain with D22T, D23W, W25Y, F27D, Y28L, E29D
modifications: EGFR binding FN3 domain
B12: P54AR4-37: EGFR-binding FN3 domain, printed SEQ ID NO: 22 (that of P54AR4-73) (protein)
chain: B10 chain with D22T, D23W, W25Y, F27D, Y28L, E29D
modifications: left off: small tags and cut ends
B13: P114AR7P92-G8: c-Met-binding FN3 domain, SEQ ID NO: 36 (protein)
chain: LPAPKNLVVSRVTEDSARLSWTAPDAAFDSFVIRYFEFLGSGEAIVLTVPGSERSYDLTGLKPGTEYVVQILGVKGGYISIPLSAIFTT
modifications: c-Met binding FN3 domain
B14: P114AR7P94-E5: c-Met-binding FN3 domain, SEQ ID NO: 42 (protein)
chain: B13 chain with V32W, V68A, Q70N, L72M, Y78R, I79V, I81V
modifications: c-Met binding FN3 domain
B15: P114AR7P92-F6: c-Met-binding FN3 domain, SEQ ID NO: 35 (protein)
chain: B13 chain with V32W, Q70N, Y78G, I79L, I81V
modifications: c-Met binding FN3 domain
B16: P114AR7P93-G8: c-Met-binding FN3 domain, SEQ ID NO: 39 (protein)
chain: B13 chain with V32W, G60D, V68G, Q70T, L72N, Y78R, I79V, I81T
modifications: c-Met binding FN3 domain
B17: P114AR7P92-H5: c-Met-binding FN3 domain, SEQ ID NO: 37 (protein)
chain: B13 chain with V32W, F36L, G40L, S41G, L72M, Y78T, I79V, I81P
modifications: c-Met binding FN3 domain
B18: P114AR7P93-H9: c-Met-binding FN3 domain, SEQ ID NO: 40 (protein)
chain: B13 chain with V32W, L72I, Y78H, I81L
modifications: c-Met binding FN3 domain
B19: P114AR5P74-A5: c-Met-binding FN3 domain, SEQ ID NO: 32 (protein)
chain: B13 chain with V32W, F36D, F38V, L39V, G40V, S41G, V68Y, Q70N, Y78S, I81V
modifications: c-Met binding FN3 domain
B20: P114AR7P95-F10: c-Met-binding FN3 domain, SEQ ID NO: 47 (protein)
chain: B13 chain with V32W, L39T, G40T, S41A, Q70N, L72M, Y78S, I81P
modifications: c-Met binding FN3 domain
B21: P114AR7P95-H8: c-Met-binding FN3 domain, SEQ ID NO: 49 (protein)
chain: B13 chain with V32W, L39V, G40S, S41K, Q70N, L72M, Y78S, I81P
modifications: c-Met binding FN3 domain
B22: P114AR7P95-D4: c-Met-binding FN3 domain, SEQ ID NO: 45 (protein)
chain: B13 chain with V32W
modifications: c-Met binding FN3 domain
B23: P114AR7P94-A3: c-Met-binding FN3 domain, SEQ ID NO: 41 (protein)
chain: B13 chain with V32W, Q70N, L72M, Y78K, I81P
modifications: c-Met binding FN3 domain
B24: P114AR7P95-G7: c-Met-binding FN3 domain, SEQ ID NO: 48 (protein)
chain: B13 chain with V32W, F38L, G40S, S41T, Q70N, L72M, Y78S, I81P
modifications: c-Met binding FN3 domain

Test system: H292 cells
Test: Inhibition of proliferation of H292 cells (HGF-induced)
Assay type: cell-based, human
Details: not given
From the text: Inhibition of tumor cell proliferation can be measured using standard methods and methods described herein.
It was verified that the enhanced potency for inhibition of EGFR and c-Met phosphorylation with the bispecific EGFR/c-Met molecules translated into an enhanced inhibition of signaling and proliferation. […] The proliferation assay was completed using different combinations EGFR and c-Met binding FN3 domains either as a mixture or linked in a bispecific format. […] This confirmed that the avidity effect observed at the level of the receptors (FIG. 6 and FIG. 7) translates into an improvement in inhibiting cell signaling (Table 17) and cell proliferation (Table 18).
Select EGFR/c-Met molecules were characterized for their affinity to both EGFR and c-Met, their ability to inhibit EGFR and c-Met autophosphorylation, and their effect on proliferation of HGF cells. Binding affinity of the bispecific EGFR/c-Met molecules to recombinant EGFR and/or c-Met extracellular domain was further by surface Plasmon resonance methods using a Proteon Instrument (BioRad) according to protocol described in Example 3.

Molecule | IC50 [nM]
B1 | 23
B2 | 31
B3 | 29.6
B4 | 383
B5 | 9480

Test system: not listed separately
Test: Thermal stability of cysteine-NEM conjugates by DSC
Assay type: physicochemical
Details: DSC 25-100 °C, 1 °C per minute
Summary of the method: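 Cysteine-NEM conjugates heated from 25 °C to 100 °C at 1 °C/min by DSC, with a repeat scan to check reversibility of unfolding. Melting temperature derived by fitting to a 2-state unfolding model.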

Molecule | First Scan Tm [°C]
B6 | 67
B7 | 70

Same assay, conditions: second identical scan

Molecule | Second Scan Tm [°C]
B6 | 67
B7 | 69

Test system: not listed separately
Test: Analytical size exclusion chromatography (percent monomer)
Assay type: physicochemical
Details: NEM-conjugated cysteine variants; SEC, Abs280 monomer region 5.5-6 minutes vs oligomer region 4-5.3 minutes
Summary of the method: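 Purified FN3 domains were run on a Superdex 75 5/150 column in PBS pH 7.4 at 0.3 mL/min with A280 detection. Percent monomer came from integrating the monomer peak (5.5–6 min) against oligomer peaks (4–5.3 min).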

Molecule | Percent monomer [%]
B6 | 100
B7 | 100

Test system: not listed separately
Test: Differential scanning calorimetry in PBS of FN3 domains
Assay type: physicochemical
Details: DSC in PBS; EGFR-binding FN3 domains and stabilised mutants
From the text: A subset of the EGFR binding FN3 domains was engineered to increase the conformational stability of each molecule. The mutations L17A, N46V, and E86I (described in US Pat. Publ. No. 2011/0274623) were incorporated into clones P54AR4-83, P54CR4-31, and P54AR4-37 by DNA synthesis. […] Differential scanning calorimetry in PBS was used to assess the stability of each mutant in order to compare it to that of the corresponding parent molecule.
Thermal Stability of c-Met-Binding FN3 Domains Differential scanning calorimetry in PBS was used to assess the stability of each FN3 domain.

Molecule | Tm [°C]
B8 | 60.9
B9 | 78.9
B10 | 50.6
B11 | 64.2
B12 | 45.9

Same assay, conditions: DSC in PBS; c-Met-binding FN3 domains

Molecule | Thermal Stability (Tm) [C.]
B13 | 90.9
B14 | 80
B15 | 76.8
B16 | 76.8
B17 | 87
B18 | 88.2
B19 | 74.1
B20 | 85.2
B21 | 83
B22 | 85.3
B23 | 86.2
B24 | 87.2

Test system: EGFR-overexpressing human tumor cell line H1573
Test: Cytotoxicity assay in H1573 cells
Assay type: cell-based
Details: cysteine variants conjugated to VC-MMAF, Cell TiterGlo at 70 hours, read-out: IC50
Summary of the method: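 Cysteine-variant proteins conjugated to an auristatin tubulin inhibitor via non-cleavable PEG4 or cleavable Val-Cit/Val-Lys linkers were added to attached cells in phenol red-free RPMI with 5% FBS. Viability was read by CellTiter-Glo at 70 h. IC50 came from sigmoidal variable-slope fits.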

Molecule | IC50 [nM]
B6 | 1
B7 | 0.54
